Laboratory results published in US7867500B2, “Cofactor that modulates steroid receptor activities” (The United States of America as represented by the …, priority 2004, dated 2011).

T1: RXR α (Homo sapiens, UniProt P19793)
T1 construct: plus VP16 fused to the indicated full length receptors; expressed in transfected cells; host or cells: CV-1
T1 sequence (P19793 1-462): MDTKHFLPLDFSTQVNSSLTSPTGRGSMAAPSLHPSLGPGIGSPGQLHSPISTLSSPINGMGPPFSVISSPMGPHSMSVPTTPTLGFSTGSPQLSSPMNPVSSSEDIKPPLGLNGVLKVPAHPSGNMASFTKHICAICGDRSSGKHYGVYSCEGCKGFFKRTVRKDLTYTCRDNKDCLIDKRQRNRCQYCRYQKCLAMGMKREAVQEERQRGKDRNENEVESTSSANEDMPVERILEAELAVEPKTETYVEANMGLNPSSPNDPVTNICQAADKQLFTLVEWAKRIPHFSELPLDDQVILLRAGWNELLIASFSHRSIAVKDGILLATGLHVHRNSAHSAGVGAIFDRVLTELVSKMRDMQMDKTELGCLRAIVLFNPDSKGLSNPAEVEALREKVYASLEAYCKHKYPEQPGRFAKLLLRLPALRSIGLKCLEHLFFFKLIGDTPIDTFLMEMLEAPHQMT

B1: STAMP: SRC-1 and TIF2 Associated Modulatory Protein, 1277 amino acid human polypeptide, expressed from transfected plasmid (protein)
chain: MARDLEETASSSEDEEVISQEDHPCIMWTGGCRRIPVLVFHADAILTKDNNIRVIGERYHLSYKIVRTDSRLVRSILTAHGFHEVHPSSTDYNLMWTGSHLKPFLLRTLSEAQKVNHFPRSYELTRKDRLYKNIIRMQHTHGFKVFHILPQTFLLPAEYAEFCNSYSKDRGPWIVKPVASSRGRGVYLINNPNQISLEENILVSRYINNPLLIDDFKFDVRLYVLVTSYDPLVIYLYEEGLARFATVRYDQGAKNIRNQFMHLTNYSVNKKSGDYVSCDDPEVEDYGNKWSMSAMLRYLKQEGRDTTALMAHVEDLIIKTIISAELAIATACKTFVPHRSSCFELYGFDVLIDSTLKPWLLEVNLSPSLACDAPLDLKIKASMISDMFTVVGFVCQDPAQRASTRPIYPTFESSRRNPFQKPQRCRPLSASDAEMKNLVGSAREKGPGKLGGSVLGLSMEEIKVLRRVKEENDRRGGFIRIFPTSETWEIYGSYLEHKTSMNYMLATRLFQDRMTADGAPELKIESLNSKAKLHAALYERKLLSLEVRKRRRRSSRLRAMRPKYPVITQPAEMNVKTETESEEEEEVALDNEDEEQEASQEESAGFLRENQAKYTPSLTALVENTPKENSMKVREWNNKGGHCCKLETQELEPKFNLMQILQDNGNLSKMQARIAFSAYLQHVQIRLMKDSGGQTFSASWAAKEDEQMELVVRFLKRASNNLQHSLRMVLPSRRLALLERRRILAHQLGDFIIVYNKETEQMAEKKSKKKVEEEEEDGVNMENFQEFIRQASEAELEEVLTFYTQKNKSASVFLGTHSKISKNNNNYSDSGAKGDHPETIMEEVKIKPPKQQQTTEIHSDKLSRFTTSAEKEAKLVYSNSSSGPTATLQKIPNTHLSSVTTSDLSPGPCHHSSLSQIPSAIPSMPHQPTILLNTVSASASPCLHPGAQNIPSPTGLPRCRSGSHTIGPFSSFQSAAHIYSQKLSRPSSAKAGSCYLNKHHSGIAKTQKEGEDASLYSKRYNQSMVTAELQRLAEKQAARQYSPSSHINLLTQQVTNLNLATGIINRSSASAPPTLRPIISPSGPTWSTQSDPQAPENHSSSPGSRSLQTGGFAWEGEVENNVYSQATGVVPQHKYHPTAGSYQLQFALQQLEQQKLQSRQLLDQSRARHQAIFGSQTLPNSNLWTMNNGAGCRISSATASGQKPTTLPQKVVPPPSSCASLVPKPPPNHEQVLRRATSQKASKGSSAEGQLNGLQSSLNPAASVPITSSTDPAHTKI
B2: STAMP834C: STAMP fragment amino acids 834-1277, receptor interaction domain (RID) (protein)
chain: GDHPETIMEEVKIKPPKQQQTTEIHSDKLSRFTTSAEKEAKLVYSNSSSGPTATLQKIPNTHLSSVTTSDLSPGPCHHSSLSQIPSAIPSMPHQPTILLNTVSASASPCLHPGAQNIPSPTGLPRCRSGSHTIGPFSSFQSAAHIYSQKLSRPSSAKAGSCYLNKHHSGIAKTQKEGEDASLYSKRYNQSMVTAELQRLAEKQAARQYSPSSHINLLTQQVTNLNLATGIINRSSASAPPTLRPIISPSGPTWSTQSDPQAPENHSSSPGSRSLQTGGFAWEGEVENNVYSQATGVVPQHKYHPTAGSYQLQFALQQLEQQKLQSRQLLDQSRARHQAIFGSQTLPNSNLWTMNNGAGCRISSATASGQKPTTLPQKVVPPPSSCASLVPKPPPNHEQVLRRATSQKASKGSSAEGQLNGLQSSLNPAASVPITSSTDPAHTKI

Columns and labels:
[1] = target: T2, GRIP1 (Mus musculus, UniProt Q61026); experiment: Whole cell co-immunoprecipitation in Cos-7 cells: HA-GRIP1; format: binding; details: EtOH ± 1 μM Dex, 2 hr
T2 construct: expressed in transfected cells; host or cells: Cos-7
Procedure: FIG. 7C1-3 illustrate whole cell co-immunoprecipitation of STAMP, GR, and TIF2/GRIP1. Cos-7 cells that had been co-transfected with Flag/STAMP (or Flag itself), HA/GRIP1, and GR plasmids (10 μg of each/150 mm dish) for 48 hr were treated for 2 hr with EtOH±1 μM Dex before being lysed as described in Example 1. Lysate was either analyzed on SDS-PAGE gels or treated with anti-Flag antibody to immunoprecipitate Flag/STAMP. The pellets were separated on SDS-PAGE gels and Western blotted with anti-Flag (FIG. 7C1), anti-HA (FIG. 7C2), or anti-GR antibodies (FIG. 7C3). In each panel, lane 1=5.7% of input lysate, lane 2=IP pellet of Flag/STAMP, HA/GRIP1, and GR+EtOH, lane 3=IP pellet of Flag/STAMP, HA/GRIP1, and GR+Dex, and lane 4=control IP pellet of Flag, HA/GRIP1, and GR+EtOH. Similar results were obtained in a second experiment.
Immunoprecipitations were conducted as generally described in Wang et al. (2004) Mol. Endocrinol. 18: 1476-95, with slight modifications. The day before transfection, Cos-7 cells were seeded into 150 mm dishes at 200,000 cells per dish containing 20 ml of media. On the next day, about 30 μg of DNA/dish was transfected with 60 μl of FuGene reagent. […]

[2] = target: T1, RXR α; experiment: Mammalian two-hybrid assay with VP16 full length receptor: RXRα; format: cell-based; details: 1 μM 9-cis-retinoic acid
Procedure: FIG. 6C1-3 illustrate the association of STAMP with assorted steroid/nuclear receptors, including glucocorticoid receptors (GRs), progesterone receptors (PRs), androgen receptors (ARs), estrogen receptors (ER α or β), PPARγ2 receptors, thyroid receptor beta (TR), and retinoid (α) receptors (RAR α or RXR α). Triplicate samples of CV-1 cells were transfected (as described for FIG. 6B) with GAL, or GAL fused to TIF2.4 or STAMP834C, plus VP16 fused to the indicated full length receptors and incubated with the appropriate steroid (1 μM Dex, 20 nM R5020, 1 nM R1881, 0.1 μM triiodothyronine, or 1 μM estradiol, roziglitazone, or 9-cis-retinoic acid). The average relative luciferase activities of 2-3 experiments±S.E.M. were then plotted. FIG. 6C1 illustrates the effects of STAMP association upon GR, PR and AR induced expression. FIG. 6C2 illustrates the effects of STAMP association upon ERα, ERβ and PPARγ2 induced expression. FIG. 6C3 illustrates the effects of STAMP association upon TR, RARα and RXRα induced expression.
These assays were conducted as described (He et al., 2002). […]

T2 sequence (Q61026 5-1462 limits assumed, one chain of several): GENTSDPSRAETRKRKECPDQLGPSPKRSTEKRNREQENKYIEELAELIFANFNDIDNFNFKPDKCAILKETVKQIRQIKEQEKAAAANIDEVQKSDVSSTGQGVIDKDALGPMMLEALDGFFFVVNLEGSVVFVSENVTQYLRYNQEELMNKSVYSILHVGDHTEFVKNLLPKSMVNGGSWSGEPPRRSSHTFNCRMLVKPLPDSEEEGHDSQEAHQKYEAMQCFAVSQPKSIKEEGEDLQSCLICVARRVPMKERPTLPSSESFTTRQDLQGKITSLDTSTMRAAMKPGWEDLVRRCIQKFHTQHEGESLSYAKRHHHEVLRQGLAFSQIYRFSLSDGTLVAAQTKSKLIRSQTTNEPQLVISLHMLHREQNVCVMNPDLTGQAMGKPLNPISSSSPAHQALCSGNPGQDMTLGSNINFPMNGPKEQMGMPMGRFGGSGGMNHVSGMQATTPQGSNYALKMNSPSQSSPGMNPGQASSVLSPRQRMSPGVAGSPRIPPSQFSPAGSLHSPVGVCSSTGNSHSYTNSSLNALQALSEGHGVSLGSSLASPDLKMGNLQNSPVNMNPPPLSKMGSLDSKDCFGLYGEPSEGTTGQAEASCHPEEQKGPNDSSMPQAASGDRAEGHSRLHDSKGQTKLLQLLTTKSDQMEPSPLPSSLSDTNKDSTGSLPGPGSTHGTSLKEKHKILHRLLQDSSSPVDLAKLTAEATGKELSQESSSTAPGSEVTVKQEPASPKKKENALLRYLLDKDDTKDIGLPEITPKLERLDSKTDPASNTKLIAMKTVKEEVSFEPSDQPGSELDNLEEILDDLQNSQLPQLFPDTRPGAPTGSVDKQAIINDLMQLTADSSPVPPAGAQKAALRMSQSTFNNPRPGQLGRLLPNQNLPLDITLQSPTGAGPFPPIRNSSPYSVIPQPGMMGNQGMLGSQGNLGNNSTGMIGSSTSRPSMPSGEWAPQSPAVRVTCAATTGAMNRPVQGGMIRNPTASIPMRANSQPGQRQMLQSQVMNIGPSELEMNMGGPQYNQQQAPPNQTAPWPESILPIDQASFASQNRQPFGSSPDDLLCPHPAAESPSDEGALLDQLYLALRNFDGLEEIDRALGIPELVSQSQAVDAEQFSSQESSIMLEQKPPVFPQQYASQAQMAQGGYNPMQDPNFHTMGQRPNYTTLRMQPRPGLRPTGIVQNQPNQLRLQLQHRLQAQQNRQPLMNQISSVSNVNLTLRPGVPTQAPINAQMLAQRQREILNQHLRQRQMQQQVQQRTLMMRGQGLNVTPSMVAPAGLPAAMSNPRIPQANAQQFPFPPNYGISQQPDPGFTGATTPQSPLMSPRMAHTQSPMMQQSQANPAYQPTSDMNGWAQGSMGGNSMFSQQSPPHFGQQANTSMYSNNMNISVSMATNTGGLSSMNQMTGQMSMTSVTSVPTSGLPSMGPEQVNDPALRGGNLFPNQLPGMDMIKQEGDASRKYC

Row | Molecule | co-immunoprecipitation of GRIP1 with Flag-STAMP by anti-Flag antibody [1] | interaction with RXR α [2]
1 | B1 | co-immunoprecipitated | –
2 | B2 | – | lack of interaction
